Experimental data reported in the supplement of paper PMC10567573.

B1: IKZF1 (parent)
chain: RDPFECNMCGYHSQDRYEFSSHIT
B2: ZNF207 (parent)
chain: YQGGPPRPPMGMRPPVMSQGGRY

Variants of: B1
Experiment: protein stability index of a GFP-peptide fusion (GPS, HEK-293T) (PSI 1-6); higher = more stable
Settings: c terminus: a fixed tail appended
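Note: lentivirally expressed fusions sorted by FACS into six bins by GFP to DsRed ratio, PSI derived from sequencing read proportions per bin multiplied by bin number.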

| Variant | protein stability index |
| --- | --- |
| S20T | 2.04 |
| S20Y | 1.71 |
| S20V | 2.16 |
| S20W | 2.15 |
| S21K | 2.28 |
| S21Q | 1.83 |
| S21P | 2.68 |
| S21C | 2.21 |
| S21Y | 1.57 |
| S21N | 2.3 |
| S21A | 1.81 |
| S21M | 1.84 |
| S21G | 2.38 |
| S21L | 2.03 |
| S21E | 2.27 |
| S21T | 2.35 |
| S21V | 2.36 |
| S21H | 2.63 |
| S21R | 1.84 |
| S21F | 2.06 |
| S21I | 2.28 |
| S21D | 2.17 |
| S21W | 2.31 |
| T24W | 2.71 |
| T24V | 1.85 |
| T24Q | 2.18 |
| T24L | 2.19 |

| Variant | protein stability index |
| --- | --- |
| T24A | 2.42 |
| T24K | 2.52 |
| T24E | 2.47 |
| T24R | 2.24 |
| T24M | 1.57 |
| T24H | 2.38 |
| T24D | 2.68 |
| T24G | 1.74 |
| T24Y | 1.39 |
| T24N | 2.23 |
| T24S | 1.75 |
| T24F | 1.95 |
| T24C | 5.1 |
| T24I | 2.28 |
| T24P | 2.32 |
| I23C | 2.59 |
| I23Y | 1.82 |
| I23W | 1.77 |
| I23Q | 2.21 |
| I23E | 3.48 |
| I23T | 2.36 |
| I23M | 2.27 |
| I23F | 2.03 |
| I23D | 3.32 |
| I23P | 2.35 |
| I23A | 2.23 |
| I23V | 2.43 |

| Variant | protein stability index |
| --- | --- |
| I23H | 2.57 |
| I23N | 2.28 |
| I23R | 2 |
| I23G | 2.43 |
| I23S | 2.5 |
| I23K | 2.75 |
| I23L | 2.15 |
| H22F | 1.97 |
| H22I | 1.83 |
| H22C | 2.54 |
| H22G | 2.17 |
| H22S | 1.88 |
| H22A | 2.15 |
| H22P | 2.12 |
| H22R | 1.58 |
| H22E | 2.55 |
| H22N | 2.28 |
| H22Q | 2.02 |
| H22L | 1.81 |
| H22K | 1.92 |
| H22V | 1.75 |
| H22D | 2.7 |
| H22W | 1.65 |
| H22Y | 2.84 |
| H22M | 1.79 |
| H22T | 2.08 |

Variants of: B2
Experiment: as above
Settings: c terminus: native

| Variant | protein stability index |
| --- | --- |
| G3M | 1.59 |
| G3A | 2.62 |
| G3W | 1.39 |
| R7S | 2.98 |
| P8A | 1.09 |
| P8I | 2.2 |
| P8K | 2.35 |
| P8C | 1 |
| P8H | 2.98 |
| Q2P | 1.72 |
| Q2K | 2.57 |
| Q2D | 2.16 |
| Q2A | 2.19 |
| Q2Y | 2.89 |
| P15S | 2.23 |
| P15E | 2.2 |
| M12S | 2.64 |
| M12R | 1.35 |
| M12G | 2.05 |
| M12V | 2.79 |
| M12K | 2.34 |
| P6D | 2.73 |

| Variant | protein stability index |
| --- | --- |
| P6A | 1.6 |
| P6K | 2.91 |
| P6M | 2.19 |
| P6N | 2.59 |
| P6L | 2.58 |
| P6S | 2.45 |
| G20K | 2.16 |
| G20W | 2.46 |
| R13M | 2.1 |
| R13W | 1.79 |
| G21P | 3.63 |
| G21R | 2.27 |
| G21V | 2.3 |
| G21F | 1.72 |
| G21T | 2.74 |
| G21Q | 2.1 |
| R22H | 1.91 |
| R22M | 1.69 |
| V16I | 2.03 |
| V16H | 2.71 |
| V16N | 2.65 |
| Y23E | 2.37 |

| Variant | protein stability index |
| --- | --- |
| Y23A | 1.98 |
| Y23C | 1.97 |
| Y23W | 3.51 |
| Y23M | 2.44 |
| M10S | 2.1 |
| M10V | 2.57 |
| G4Y | 2.05 |
| G4N | 3.23 |
| G4I | 2.34 |
| G4L | 1.5 |
| G4D | 3.56 |
| G4H | 2.6 |
| G4K | 2.78 |
| Q19P | 1.9 |
| Q19N | 2.56 |
| Q19L | 1.46 |
| Q19K | 2.18 |
| Q19H | 4.08 |
| G11L | 1.82 |
| G11N | 1.97 |
| G11C | 1.81 |
| G11P | 1.6 |

| Variant | protein stability index |
| --- | --- |
| M17Q | 2.56 |
| M17D | 2.86 |
| M17Y | 1.75 |
| M17S | 2.62 |
| P5T | 3.09 |
| P5M | 1.22 |
| P5V | 2.82 |
| P5N | 2.12 |
| P5K | 2.56 |
| P5H | 1.92 |
| Y1M | 3.87 |
| Y1K | 3.55 |
| Y1A | 3.11 |
| P14G | 2.35 |
| P14A | 1.47 |
| P9G | 2.84 |
| P9M | 1.12 |
| P9H | 1.41 |
| P9N | 1.44 |
| S18K | 1.81 |
| S18L | 2.28 |
